Measurements from patent US20260049138A1 (Chugai, published 2026).

Molecular target: T1, CD3ε homodimer protein (human, UniProt P07766 23-126, limits assumed)
T1 construct: also called CD3 (CD3ε)
Assay: SPR Biacore T200, CD3ε homodimer on chip;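 further: Light-chain single-residue variant antibodies injected over amine-coupled CD3ε homodimer on a CM4 chip at 25 °C, bound amount divided by that of the GLS3000-containing antibody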

T1 sequence (P07766 23-126 limits assumed): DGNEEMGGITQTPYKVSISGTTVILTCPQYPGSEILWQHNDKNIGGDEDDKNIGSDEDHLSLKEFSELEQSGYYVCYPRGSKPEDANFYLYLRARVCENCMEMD

Binder | ratio of amount bound vs unaltered GLS3000
GLS3000 S27eT one-arm antibody (antibody, human IgG1, kappa, L234A L235A, N297A, name in Kabat numbering) heavy: QVQLVESGGGVVQPGRSLRLSCAASGFTFSNAWMHWVRQAPGKGLEWVAQIKAKSNNYATYYAESVKGRFTISRDDSKNSLYLQMNSLKTEDTAVYYCRYVHYGAYYGVDAWGQGTTVTVSSASTKGPSVFPLAPSSKSTSGGTAALGCLVKDYFPEPVTVSWNSGALTSGVHTFPAVLQSSGLYSLSSVVTVPSSSLGTQTYICNVNHKPSNTKVDKKVEPKSCDKTHTCPPCPAPEAAGGPSVFLFPPKPKDTLMISRTPEVTCVVVDVSHEDPEVKFNWYVDGVEVHNAKTKPREEQYASTYRVVSVLTVLHQDWLNGKEYKCKVSNKALPAPIEKTISKAKGQPREPQVYTLPPSRCELTKNQVSLSCAVKGFYPSDIAVEWESNGQPENNYKTTPPVLDSDGSFFLVSKLTVDKSRWQQGNVFSCSVMHEALHNHYTQKSLSLSPDYKDDDDK EPKSSDKTHTCPPCPAPELLGGPSVFLFPPKPKDTLMISRTPEVTCVVVDVSHEDPEVKFNWYVDGVEVHNAKTKPREEQYNSTYRVVSVLTVLHQDWLNGKEYKCKVSNKALPAPIEKTISKAKGQPREPQVCTLPPSRDELTKNQVSLWCLVKGFYPSDIAVEWESNGQPENNYKTTPPVLDSDGSFFLYSKLTVDKSRWQQGNVFSCSVMHEALHNRYTQKSLSLSP light: DIVMTQSPLSLPVTPGEPASISCRSSQSLVHTNRNTYLHWYQQKPGQAPRLLIYKVSNRFSGVPDRFSGSGSGTDFTLKISRVEAEDVGVYYCGQGTQVPYTFGQGTKLEIKRTVAAPSVFIFPPSDEQLKSGTASVVCLLNNFYPREAKVQWKVDNALQSGNSQESVTEQDSKDSTYSLSSTLTLSKADYEKHKVYACEVTHQGLSSPVTKSFNRGEC | 0.97
GLS3000 S52A one-arm antibody (antibody, human IgG1, kappa, L234A L235A, N297A, name in Kabat numbering) heavy: QVQLVESGGGVVQPGRSLRLSCAASGFTFSNAWMHWVRQAPGKGLEWVAQIKAKSNNYATYYAESVKGRFTISRDDSKNSLYLQMNSLKTEDTAVYYCRYVHYGAYYGVDAWGQGTTVTVSSASTKGPSVFPLAPSSKSTSGGTAALGCLVKDYFPEPVTVSWNSGALTSGVHTFPAVLQSSGLYSLSSVVTVPSSSLGTQTYICNVNHKPSNTKVDKKVEPKSCDKTHTCPPCPAPEAAGGPSVFLFPPKPKDTLMISRTPEVTCVVVDVSHEDPEVKFNWYVDGVEVHNAKTKPREEQYASTYRVVSVLTVLHQDWLNGKEYKCKVSNKALPAPIEKTISKAKGQPREPQVYTLPPSRCELTKNQVSLSCAVKGFYPSDIAVEWESNGQPENNYKTTPPVLDSDGSFFLVSKLTVDKSRWQQGNVFSCSVMHEALHNHYTQKSLSLSPDYKDDDDK EPKSSDKTHTCPPCPAPELLGGPSVFLFPPKPKDTLMISRTPEVTCVVVDVSHEDPEVKFNWYVDGVEVHNAKTKPREEQYNSTYRVVSVLTVLHQDWLNGKEYKCKVSNKALPAPIEKTISKAKGQPREPQVCTLPPSRDELTKNQVSLWCLVKGFYPSDIAVEWESNGQPENNYKTTPPVLDSDGSFFLYSKLTVDKSRWQQGNVFSCSVMHEALHNRYTQKSLSLSP light: DIVMTQSPLSLPVTPGEPASISCRSSQSLVHSNRNTYLHWYQQKPGQAPRLLIYKVANRFSGVPDRFSGSGSGTDFTLKISRVEAEDVGVYYCGQGTQVPYTFGQGTKLEIKRTVAAPSVFIFPPSDEQLKSGTASVVCLLNNFYPREAKVQWKVDNALQSGNSQESVTEQDSKDSTYSLSSTLTLSKADYEKHKVYACEVTHQGLSSPVTKSFNRGEC | 0.93
GLS3000 S27eW one-arm antibody (antibody, human IgG1, kappa, L234A L235A, N297A, name in Kabat numbering) heavy: QVQLVESGGGVVQPGRSLRLSCAASGFTFSNAWMHWVRQAPGKGLEWVAQIKAKSNNYATYYAESVKGRFTISRDDSKNSLYLQMNSLKTEDTAVYYCRYVHYGAYYGVDAWGQGTTVTVSSASTKGPSVFPLAPSSKSTSGGTAALGCLVKDYFPEPVTVSWNSGALTSGVHTFPAVLQSSGLYSLSSVVTVPSSSLGTQTYICNVNHKPSNTKVDKKVEPKSCDKTHTCPPCPAPEAAGGPSVFLFPPKPKDTLMISRTPEVTCVVVDVSHEDPEVKFNWYVDGVEVHNAKTKPREEQYASTYRVVSVLTVLHQDWLNGKEYKCKVSNKALPAPIEKTISKAKGQPREPQVYTLPPSRCELTKNQVSLSCAVKGFYPSDIAVEWESNGQPENNYKTTPPVLDSDGSFFLVSKLTVDKSRWQQGNVFSCSVMHEALHNHYTQKSLSLSPDYKDDDDK EPKSSDKTHTCPPCPAPELLGGPSVFLFPPKPKDTLMISRTPEVTCVVVDVSHEDPEVKFNWYVDGVEVHNAKTKPREEQYNSTYRVVSVLTVLHQDWLNGKEYKCKVSNKALPAPIEKTISKAKGQPREPQVCTLPPSRDELTKNQVSLWCLVKGFYPSDIAVEWESNGQPENNYKTTPPVLDSDGSFFLYSKLTVDKSRWQQGNVFSCSVMHEALHNRYTQKSLSLSP light: DIVMTQSPLSLPVTPGEPASISCRSSQSLVHWNRNTYLHWYQQKPGQAPRLLIYKVSNRFSGVPDRFSGSGSGTDFTLKISRVEAEDVGVYYCGQGTQVPYTFGQGTKLEIKRTVAAPSVFIFPPSDEQLKSGTASVVCLLNNFYPREAKVQWKVDNALQSGNSQESVTEQDSKDSTYSLSSTLTLSKADYEKHKVYACEVTHQGLSSPVTKSFNRGEC | 1.55
GLS3000 S27eY one-arm antibody (antibody, human IgG1, kappa, L234A L235A, N297A, name in Kabat numbering) heavy: QVQLVESGGGVVQPGRSLRLSCAASGFTFSNAWMHWVRQAPGKGLEWVAQIKAKSNNYATYYAESVKGRFTISRDDSKNSLYLQMNSLKTEDTAVYYCRYVHYGAYYGVDAWGQGTTVTVSSASTKGPSVFPLAPSSKSTSGGTAALGCLVKDYFPEPVTVSWNSGALTSGVHTFPAVLQSSGLYSLSSVVTVPSSSLGTQTYICNVNHKPSNTKVDKKVEPKSCDKTHTCPPCPAPEAAGGPSVFLFPPKPKDTLMISRTPEVTCVVVDVSHEDPEVKFNWYVDGVEVHNAKTKPREEQYASTYRVVSVLTVLHQDWLNGKEYKCKVSNKALPAPIEKTISKAKGQPREPQVYTLPPSRCELTKNQVSLSCAVKGFYPSDIAVEWESNGQPENNYKTTPPVLDSDGSFFLVSKLTVDKSRWQQGNVFSCSVMHEALHNHYTQKSLSLSPDYKDDDDK EPKSSDKTHTCPPCPAPELLGGPSVFLFPPKPKDTLMISRTPEVTCVVVDVSHEDPEVKFNWYVDGVEVHNAKTKPREEQYNSTYRVVSVLTVLHQDWLNGKEYKCKVSNKALPAPIEKTISKAKGQPREPQVCTLPPSRDELTKNQVSLWCLVKGFYPSDIAVEWESNGQPENNYKTTPPVLDSDGSFFLYSKLTVDKSRWQQGNVFSCSVMHEALHNRYTQKSLSLSP light: DIVMTQSPLSLPVTPGEPASISCRSSQSLVHYNRNTYLHWYQQKPGQAPRLLIYKVSNRFSGVPDRFSGSGSGTDFTLKISRVEAEDVGVYYCGQGTQVPYTFGQGTKLEIKRTVAAPSVFIFPPSDEQLKSGTASVVCLLNNFYPREAKVQWKVDNALQSGNSQESVTEQDSKDSTYSLSSTLTLSKADYEKHKVYACEVTHQGLSSPVTKSFNRGEC | 1.2
GLS3000 S52D one-arm antibody (antibody, human IgG1, kappa, L234A L235A, N297A, name in Kabat numbering) heavy: QVQLVESGGGVVQPGRSLRLSCAASGFTFSNAWMHWVRQAPGKGLEWVAQIKAKSNNYATYYAESVKGRFTISRDDSKNSLYLQMNSLKTEDTAVYYCRYVHYGAYYGVDAWGQGTTVTVSSASTKGPSVFPLAPSSKSTSGGTAALGCLVKDYFPEPVTVSWNSGALTSGVHTFPAVLQSSGLYSLSSVVTVPSSSLGTQTYICNVNHKPSNTKVDKKVEPKSCDKTHTCPPCPAPEAAGGPSVFLFPPKPKDTLMISRTPEVTCVVVDVSHEDPEVKFNWYVDGVEVHNAKTKPREEQYASTYRVVSVLTVLHQDWLNGKEYKCKVSNKALPAPIEKTISKAKGQPREPQVYTLPPSRCELTKNQVSLSCAVKGFYPSDIAVEWESNGQPENNYKTTPPVLDSDGSFFLVSKLTVDKSRWQQGNVFSCSVMHEALHNHYTQKSLSLSPDYKDDDDK EPKSSDKTHTCPPCPAPELLGGPSVFLFPPKPKDTLMISRTPEVTCVVVDVSHEDPEVKFNWYVDGVEVHNAKTKPREEQYNSTYRVVSVLTVLHQDWLNGKEYKCKVSNKALPAPIEKTISKAKGQPREPQVCTLPPSRDELTKNQVSLWCLVKGFYPSDIAVEWESNGQPENNYKTTPPVLDSDGSFFLYSKLTVDKSRWQQGNVFSCSVMHEALHNRYTQKSLSLSP light: DIVMTQSPLSLPVTPGEPASISCRSSQSLVHSNRNTYLHWYQQKPGQAPRLLIYKVDNRFSGVPDRFSGSGSGTDFTLKISRVEAEDVGVYYCGQGTQVPYTFGQGTKLEIKRTVAAPSVFIFPPSDEQLKSGTASVVCLLNNFYPREAKVQWKVDNALQSGNSQESVTEQDSKDSTYSLSSTLTLSKADYEKHKVYACEVTHQGLSSPVTKSFNRGEC | 0.63
GLS3000 S27eV one-arm antibody (antibody, human IgG1, kappa, L234A L235A, N297A, name in Kabat numbering) heavy: QVQLVESGGGVVQPGRSLRLSCAASGFTFSNAWMHWVRQAPGKGLEWVAQIKAKSNNYATYYAESVKGRFTISRDDSKNSLYLQMNSLKTEDTAVYYCRYVHYGAYYGVDAWGQGTTVTVSSASTKGPSVFPLAPSSKSTSGGTAALGCLVKDYFPEPVTVSWNSGALTSGVHTFPAVLQSSGLYSLSSVVTVPSSSLGTQTYICNVNHKPSNTKVDKKVEPKSCDKTHTCPPCPAPEAAGGPSVFLFPPKPKDTLMISRTPEVTCVVVDVSHEDPEVKFNWYVDGVEVHNAKTKPREEQYASTYRVVSVLTVLHQDWLNGKEYKCKVSNKALPAPIEKTISKAKGQPREPQVYTLPPSRCELTKNQVSLSCAVKGFYPSDIAVEWESNGQPENNYKTTPPVLDSDGSFFLVSKLTVDKSRWQQGNVFSCSVMHEALHNHYTQKSLSLSPDYKDDDDK EPKSSDKTHTCPPCPAPELLGGPSVFLFPPKPKDTLMISRTPEVTCVVVDVSHEDPEVKFNWYVDGVEVHNAKTKPREEQYNSTYRVVSVLTVLHQDWLNGKEYKCKVSNKALPAPIEKTISKAKGQPREPQVCTLPPSRDELTKNQVSLWCLVKGFYPSDIAVEWESNGQPENNYKTTPPVLDSDGSFFLYSKLTVDKSRWQQGNVFSCSVMHEALHNRYTQKSLSLSP light: DIVMTQSPLSLPVTPGEPASISCRSSQSLVHVNRNTYLHWYQQKPGQAPRLLIYKVSNRFSGVPDRFSGSGSGTDFTLKISRVEAEDVGVYYCGQGTQVPYTFGQGTKLEIKRTVAAPSVFIFPPSDEQLKSGTASVVCLLNNFYPREAKVQWKVDNALQSGNSQESVTEQDSKDSTYSLSSTLTLSKADYEKHKVYACEVTHQGLSSPVTKSFNRGEC | 1.08
